Earlier results in PMC9008539.

Biological target: PfRh5 (Plasmodium falciparum) (UniProt Q8IFM5)
Sequence (Q8IFM5 25-526): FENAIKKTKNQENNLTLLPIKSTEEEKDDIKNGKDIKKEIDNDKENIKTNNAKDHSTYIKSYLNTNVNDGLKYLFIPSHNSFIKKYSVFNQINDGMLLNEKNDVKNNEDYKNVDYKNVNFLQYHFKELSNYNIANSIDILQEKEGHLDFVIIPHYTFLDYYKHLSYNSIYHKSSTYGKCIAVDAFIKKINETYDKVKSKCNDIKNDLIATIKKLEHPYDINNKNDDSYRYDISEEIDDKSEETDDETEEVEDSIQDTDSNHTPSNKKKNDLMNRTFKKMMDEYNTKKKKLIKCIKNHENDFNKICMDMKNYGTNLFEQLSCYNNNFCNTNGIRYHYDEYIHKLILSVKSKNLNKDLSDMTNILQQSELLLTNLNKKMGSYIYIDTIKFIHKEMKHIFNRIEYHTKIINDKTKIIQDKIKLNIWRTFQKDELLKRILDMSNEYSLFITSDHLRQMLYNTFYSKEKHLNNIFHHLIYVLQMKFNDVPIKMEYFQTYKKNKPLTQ

PfRipr (from UniProt O97302)
Kd: 0.48 nM
